Patent US8003599

Target: human L1 adhesion molecule (L1-CAM), wild type, on cells
Sequence (chain, as listed by the source): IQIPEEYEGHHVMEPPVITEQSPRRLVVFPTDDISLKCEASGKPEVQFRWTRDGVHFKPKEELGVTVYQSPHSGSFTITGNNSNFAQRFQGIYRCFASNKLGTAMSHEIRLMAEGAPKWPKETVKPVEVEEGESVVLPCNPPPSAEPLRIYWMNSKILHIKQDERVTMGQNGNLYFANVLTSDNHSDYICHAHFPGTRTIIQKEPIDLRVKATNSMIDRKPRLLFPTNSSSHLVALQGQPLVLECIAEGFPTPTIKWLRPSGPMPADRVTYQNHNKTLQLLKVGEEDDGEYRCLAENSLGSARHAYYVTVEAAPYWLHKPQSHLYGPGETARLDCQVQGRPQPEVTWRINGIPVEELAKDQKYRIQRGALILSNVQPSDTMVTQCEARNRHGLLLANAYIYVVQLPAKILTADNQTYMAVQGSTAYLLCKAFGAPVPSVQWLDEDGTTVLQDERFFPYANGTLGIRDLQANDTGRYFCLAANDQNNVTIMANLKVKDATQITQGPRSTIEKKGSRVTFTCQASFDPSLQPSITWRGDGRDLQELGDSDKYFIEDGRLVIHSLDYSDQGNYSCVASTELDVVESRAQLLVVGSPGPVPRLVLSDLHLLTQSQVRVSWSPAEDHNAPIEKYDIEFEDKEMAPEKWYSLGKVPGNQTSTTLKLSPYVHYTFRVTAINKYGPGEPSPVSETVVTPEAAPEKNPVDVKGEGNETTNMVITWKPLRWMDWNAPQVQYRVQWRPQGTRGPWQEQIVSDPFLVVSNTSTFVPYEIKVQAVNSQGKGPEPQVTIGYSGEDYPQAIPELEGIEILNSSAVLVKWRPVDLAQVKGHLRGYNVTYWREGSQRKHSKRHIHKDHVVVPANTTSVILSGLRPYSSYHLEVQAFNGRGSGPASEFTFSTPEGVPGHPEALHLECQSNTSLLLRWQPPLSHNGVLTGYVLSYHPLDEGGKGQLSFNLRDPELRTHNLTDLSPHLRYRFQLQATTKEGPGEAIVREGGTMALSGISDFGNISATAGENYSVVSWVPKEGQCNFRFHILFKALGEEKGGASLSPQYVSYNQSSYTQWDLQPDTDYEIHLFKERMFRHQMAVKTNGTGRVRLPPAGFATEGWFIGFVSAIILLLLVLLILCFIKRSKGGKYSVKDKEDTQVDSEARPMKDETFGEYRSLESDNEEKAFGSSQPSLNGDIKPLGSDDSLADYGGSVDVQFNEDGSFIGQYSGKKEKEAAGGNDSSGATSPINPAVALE

B1: human ADAM10 (membrane-bound metalloproteinase) (protein)
chain: TTSAEKNTCQLYIQTDHLFFKYYGTREAVIAQISSHVKAIDTIYQTTDFSGIRNISFMVKRIRINTTADEKDPTNPFRFPNIGVEKFLELNSEQNHDDYCLAYVFTDRDFDDGVLGLAWVGAPSGSSGGICEKSKLYSDGKKKSLNTGIITVQNYGSHVPPKVSHITFAHEVGHNFGSPHDSGTECTPGESKNLGQKENGNYIMYARATSGDKLNNNKFSLCSIRNISQVLEKKRNNCFVESGQPICGNGMVEQGEECDCGYSDQCKDECCFDANQPEGRKCKLKPGKQCSPSQGPCCTAQCAFKSKSEKCRDDSDCAREGICNGFTALCPASDPKPNFTDCNRHTQVCINGQCAGSICEKYGLEECTCASSDGKDDKELCHVCCMKKMDPSTCASTGSVQWSRHFSGRTITLQPGSPCNDFRGYCDVFMRCRLVDADGPLARLKKAIFSPELYENIAEWIVAHWWAVLLMGIALIMLMAGFIKICSVHTPSSNPKLPPPKPLPGTLKRRRPPQPIQQPQRQRPRESYQMGHMRR
Question: How did the L1 cleavage turn out when B1 was run?
Answer: L1 cleavage required the membrane-bound metalloproteinase ADAM10
